Measurements: article PMC4207522, “Interaction of Omega, Sigma, and Theta glutathione transferases with p38b mitogenactivated protein kinase from the fruit fly, Drosophila melanogaster” (Journal of Insect Science, 2014)

Tests used:
[1] = target: p38b mitogen-activated protein kinase (Drosophila melanogaster) (UniProt O61443)
[2] = target: p38b mitogen-activated protein kinase (Drosophila melanogaster) (UniProt O61443); remark: listed apart in the source
[3] = target: p38b mitogen-activated protein kinase (Drosophila melanogaster) (UniProt O61443); remark: listed apart in the source

Chain of UniProt O61443 (O61443 whole entry): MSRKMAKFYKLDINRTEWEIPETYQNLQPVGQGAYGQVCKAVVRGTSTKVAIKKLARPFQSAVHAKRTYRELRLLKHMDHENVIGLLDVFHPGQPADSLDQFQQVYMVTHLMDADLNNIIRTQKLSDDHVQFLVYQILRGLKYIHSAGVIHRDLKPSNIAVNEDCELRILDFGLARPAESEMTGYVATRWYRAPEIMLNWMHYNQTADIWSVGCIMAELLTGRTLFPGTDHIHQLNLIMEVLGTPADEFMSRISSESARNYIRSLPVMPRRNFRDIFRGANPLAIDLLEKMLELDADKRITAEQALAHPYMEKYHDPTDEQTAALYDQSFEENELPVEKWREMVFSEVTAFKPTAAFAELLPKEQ

Row | Substance | p38b kinase activity toward Jun with the GST at 1:1 molar ratio (ADP Quest assay), fold against the reaction without GST [1] [fold] | GST conjugating activity toward CDNB after 5 min with p38b at 1:1 molar ratio, percent increase against no p38b [2] [%] | GST thiol transferase activity toward HED after 5 min with p38b at 1:1 molar ratio, percent change (a decrease by the discussion) against no p38b [2] [%] | p38b kinase activity toward ATF2 with the GST at 1:1 molar ratio (ADP Quest assay), fold against the reaction without GST [1] [fold] | p38b kinase activity toward ATF2 with DmGSTT3b, fold against p38b with DmGSTT3a [3] [fold] | p38b kinase activity toward Jun with DmGSTT3b, fold against p38b with DmGSTT3a [3] [fold] | GST conjugating activity toward CDNB after 5 min with p38b at 1:1 molar ratio, percent decrease against no p38b [2] [%]
1 | DmGSTO1 (enzyme) | 2 | 58 |  |  |  |  | 
2 | DmGSTO2a (enzyme) |  | 26 |  |  |  |  | 
3 | DmGSTO3 (enzyme) | 1.6 |  | 14 |  |  |  | 
4 | DmGSTT2 (enzyme) | 4.3 | 14 |  | 3.1 |  |  | 
5 | DmGSTT3b (enzyme) | 7.4 |  |  | 3.4 | 3.1 | 6.9 | 84
